The target of experiment [1] is E. coli Hfq V22A (E. coli) (UniProt P0A6X3). The experiment can be described thus: crystal structure; co-crystal of Hfq V22A with A17 RNA; 15% PEGSH, 0.15 M ammonium acetate, 0.1 M trisodium citrate pH 5; 2.1 Å.
For experiment [2] the target is unchanged. Kind of experiment: crystal structure; co-crystal of Hfq V22A with pA4 RNA; 22.5% PEGSB, 0.2 M LiSO4, 0.05 M zinc acetate, 0.1 M Bis-Tris pH 7.5; roughly 3.0 Å.

One may read the stoichiometry N as the number of molecules, sites or subunits per partner or assembly. As for “E. coli Hfq V22A (from UniProt P0A6X3 1-102) (natural protein)”, the stoichiometry N in experiment [1] and in experiment [2] was 6 in each case.
